In the supplement of paper PMC6757056:
± gives the standard deviation of the averaged measurements.

B1: library; a variant is named by its letters at N, in order (parent)
chain: GCUGUCACCGAGAAACUGUGAAGUAUAUCUUAAACCUGGGCACUUAAAAGAUAUAUGGAGUUAGUAGUGCAACCUGCUCGGUCUGAUGAGUCCNNNNNNGGACGAAACAGC

Legend:
[1] = variants of: B1; test: FACS-Seq fitted mean relative fluorescence mCherry/BFP without ligand (log10 relative fluorescence); HEK293T; ligand: cyclic di-GMP (c-di-GMP-II aptamer); higher = higher reporter protein expression; conditions: ligand present: no
In short: (§1)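 Enriched HEK293T cells carrying, by lentivirus, an mCherry reporter with the ribozyme switch and an EF1α-BFP marker spent 48 h with or without ligand and were sorted into 6 bins by mCherry/BFP. MiSeq sequencing of PCR-amplified bin genomic DNA gave bin counts. Fluorescence was calculated as the fitted normal mean of those counts. Counts were binned on log10(mCherry/BFP), and means were scaled to five spiked-in control ribozymes.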

[2] = variants of: B1; test: normalized RNA/DNA level without ligand (relative to sTRSVctl = 100) (log10 (% of sTRSVctl)); HEK293T; ligand: cyclic di-GMP (c-di-GMP-II aptamer); higher = less ribozyme self-cleavage, higher mRNA level; conditions: reporter: mCherry (pCS4076), ligand present: no
Description: (§2)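 Hammerhead (sTRSV) ribozyme switch libraries with a ligand aptamer grafted on stem I and a randomized N4-6 loop II, cloned into the 3' UTR of mCherry and transiently transfected into HEK293T cells; RNA-Seq 72 h post transfection with ligand added 1 h before transfection; RNA read count / plasmid DNA read count normalized to the non-cleaving sTRSVctl (x100), log10; sequences with >100 DNA reads. FACS-Seq: lentiviral library sorted into 6 bins after 48 h ligand, log-normal fit mean of mCherry/BFP scaled to controls. Printed sequences are partial switch sequences.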

[3] = variants of: B1; test: FACS-Seq fitted mean relative fluorescence mCherry/BFP with ligand (log10 relative fluorescence); HEK293T; ligand: cyclic di-GMP (c-di-GMP-II aptamer); ligand concentration (+) FACS-Seq: 1 mM; higher = higher reporter protein expression; conditions: ligand present: yes
In short: as §1

[4] = variants of: B1; test: normalized RNA/DNA level with ligand (relative to sTRSVctl = 100) (log10 (% of sTRSVctl)); HEK293T; ligand: cyclic di-GMP (c-di-GMP-II aptamer); ligand concentration (+) RNA-Seq: 1 mM; higher = less ribozyme self-cleavage, higher mRNA level; conditions: reporter: mCherry (pCS4076), ligand present: yes
Description: as §2

Row | Variant | FACS-Seq fitted mean (log10) [1] | normalized RNA/DNA level without ligand (log10) [2] | FACS-Seq fitted mean (log10) [3] | normalized RNA/DNA level with ligand (log10) [4]
1 | AAUAGG | -0.474 ± 0.0071 | 1.5 ± 0.069 | -0.162 ± 0.0064 | 1.68 ± 0.12
2 | AAUAGA | -0.609 ± 0.01 | 1.39 ± 0.12 | -0.411 ± 0.015 | 1.58 ± 0.08
3 | UAGGGA | -0.172 ± 0.12 | 1.53 ± 0.039 | -0.000875 ± 0.13 | 1.68 ± 0.14
4 | UAGGGU | -0.424 ± 0.015 | 1.61 ± 0.075 | -0.0926 ± 0.068 | 1.78 ± 0.13
5 | UAUAUC | -0.579 ± 0.13 | 1.71 ± 0.018 | -0.583 ± 0.2 | 1.85 ± 0.12
6 | AACGAU | -0.207 ± 0.075 | 1.57 ± 0.052 | 0.0583 ± 0.17 | 1.76 ± 0.096
7 | AACGAG | -0.834 ± 0.078 | 1.53 ± 0.1 | -0.763 ± 0.099 | 1.71 ± 0.069
8 | GAGUUG | -0.0245 ± 0.095 | 1.8 ± 0.04 | 0.211 ± 0.021 | 1.92 ± 0.12
9 | GAGUUA | -0.199 ± 0.084 | 1.74 ± 0.033 | -0.129 ± 0.019 | 1.82 ± 0.14
10 | UAGUCC | 0.148 ± 0.14 | 1.72 ± 0.1 | 0.203 ± 0.041 | 1.85 ± 0.086
11 | AACGCU | -0.0259 ± 0.099 | 1.704 ± 0.013 | 0.296 ± 0.0034 | 1.86 ± 0.076
12 | AACGCC | -0.235 ± 0.048 | 1.75 ± 0.022 | 0.192 ± 0.046 | 1.9 ± 0.15
13 | CACGCA | -0.406 ± 0.0063 | 1.61 ± 0.04 | -0.00856 ± 0.11 | 1.79 ± 0.11
14 | CACGAA | -0.353 ± 0.036 | 1.33 ± 0.14 | -0.00961 ± 0.027 | 1.53 ± 0.094
15 | UAUACU | 0.0993 ± 0.048 | 1.722 ± 0.013 | 0.304 ± 0.012 | 1.85 ± 0.066
16 | AACAGU | -1.23 ± 0.038 | 1.57 ± 0.076 | -1.08 ± 0.027 | 1.76 ± 0.063
17 | AACAGA | -0.897 ± 0.023 | 1.39 ± 0.14 | -0.683 ± 0.0078 | 1.59 ± 0.11
18 | CACUAA | -0.523 ± 0.058 | 1.3 ± 0.16 | -0.243 ± 0.011 | 1.48 ± 0.13
19 | GAGAGA | -0.796 ± 0.023 | 1.61 ± 0.037 | -0.733 ± 0.053 | 1.72 ± 0.086
20 | GAUACA | -0.276 ± 0.023 | 1.65 ± 0.032 | -0.124 ± 0.088 | 1.8 ± 0.11
21 | AAGGUG | -0.189 ± 0.0061 | 1.51 ± 0.072 | 0.04 ± 0.083 | 1.69 ± 0.11
22 | AAGGUA | -0.681 ± 0.028 | 1.4 ± 0.091 | -0.372 ± 0.038 | 1.57 ± 0.13
23 | AAGGUU | -0.341 ± 0.089 | 1.59 ± 0.022 | -0.152 ± 0.091 | 1.8 ± 0.1
24 | GACAGA | -0.179 ± 0.21 | 1.52 ± 0.065 | 0.0814 ± 0.049 | 1.7 ± 0.068

Row | Variant | FACS-Seq fitted mean (log10) [1] | normalized RNA/DNA level without ligand (log10) [2] | FACS-Seq fitted mean (log10) [3] | normalized RNA/DNA level with ligand (log10) [4]
25 | GACGGA | -0.135 ± 0.078 | 1.47 ± 0.078 | 0.0761 ± 0.072 | 1.63 ± 0.076
26 | UACGCU | -0.169 ± 0.063 | 1.71 ± 0.032 | 0.108 ± 0.051 | 1.86 ± 0.098
27 | CACGUG | -0.341 ± 0.18 | 1.67 ± 0.019 | -0.148 ± 0.21 | 1.84 ± 0.085
28 | AAGGAA | -0.627 ± 0.048 | 1.35 ± 0.13 | -0.409 ± 0.03 | 1.51 ± 0.069
29 | AAGAUA | -0.4038 ± 0.0036 | 1.42 ± 0.094 | -0.0468 ± 0.065 | 1.63 ± 0.063
30 | GACCUA | -0.232 ± 0.041 | 1.621 ± 0.011 | 0.101 ± 0.016 | 1.77 ± 0.11
31 | GACCUG | -0.44 ± 0.12 | 1.66 ± 0.022 | -0.213 ± 0.13 | 1.81 ± 0.11
32 | AACAUG | 0.0898 ± 0.039 | 1.54 ± 0.053 | 0.286 ± 0.039 | 1.72 ± 0.081
33 | AACAUC | -0.233 ± 0.056 | 1.593 ± 0.012 | 0.0469 ± 0.033 | 1.75 ± 0.13
34 | UAGACU | -0.164 ± 0.073 | 1.68 ± 0.051 | 0.141 ± 0.12 | 1.85 ± 0.13
35 | CAUCAA | -0.3769 ± 0.0032 | 1.32 ± 0.035 | -0.0581 ± 0.076 | 1.57 ± 0.057
36 | CAGCCA | -0.196 ± 0.089 | 1.42 ± 0.05 | 0.0333 ± 0.08 | 1.67 ± 0.14
37 | GAUAAU | -0.142 ± 0.21 | 1.59 ± 0.068 | 0.0798 ± 0.079 | 1.75 ± 0.075
38 | GAUAAA | -0.481 ± 0.013 | 1.47 ± 0.065 | -0.1618 ± 0.00059 | 1.63 ± 0.1
39 | CACCUA | -0.26 ± 0.028 | 1.36 ± 0.15 | 0.0161 ± 0.13 | 1.58 ± 0.12
40 | CACCUU | -0.0716 ± 0.019 | 1.48 ± 0.076 | 0.228 ± 0.071 | 1.67 ± 0.066
41 | GAUCAU | -0.326 ± 0.12 | 1.63 ± 0.051 | -0.0439 ± 0.023 | 1.79 ± 0.14
42 | GAUCAA | -0.23 ± 0.07 | 1.57 ± 0.054 | 0.0757 ± 0.065 | 1.75 ± 0.052
43 | CAGGAA | -0.629 ± 0.038 | 1.4 ± 0.099 | -0.392 ± 0.12 | 1.51 ± 0.051
44 | AACCAA | -0.517 ± 0.035 | 1.43 ± 0.082 | -0.235 ± 0.052 | 1.63 ± 0.1
45 | AACCAU | -0.0934 ± 0.098 | 1.6 ± 0.025 | 0.0926 ± 0.016 | 1.76 ± 0.15
46 | CACUGU | -0.215 ± 0.023 | 1.709 ± 0.017 | 0.0975 ± 0.08 | 1.83 ± 0.11
47 | CACAGA | -0.384 ± 0.025 | 1.53 ± 0.058 | -0.0508 ± 0.039 | 1.74 ± 0.1
48 | CACAGU | -0.189 ± 0.13 | 1.74 ± 0.045 | 0.105 ± 0.062 | 1.85 ± 0.064

Row | Variant | FACS-Seq fitted mean (log10) [1] | normalized RNA/DNA level without ligand (log10) [2] | FACS-Seq fitted mean (log10) [3] | normalized RNA/DNA level with ligand (log10) [4]
49 | GACGAU | -0.37 ± 0.031 | 1.59 ± 0.021 | -0.0677 ± 0.044 | 1.74 ± 0.14
50 | GACGAA | -0.377 ± 0.016 | 1.43 ± 0.12 | -0.01 ± 0.049 | 1.65 ± 0.085
51 | CAUAUA | -0.483 ± 0.05 | 1.3 ± 0.14 | -0.237 ± 0.014 | 1.51 ± 0.097
52 | AAUAAA | -0.411 ± 0.041 | 1.47 ± 0.097 | -0.166 ± 0.054 | 1.69 ± 0.069
53 | CAGCUG | 0.189 ± 0.018 | 1.767 ± 0.0057 | 0.403 ± 0.038 | 1.84 ± 0.12
54 | CAGCUU | -0.396 ± 0.075 | 1.62 ± 0.095 | -0.151 ± 0.049 | 1.75 ± 0.091
55 | CAGCUA | -0.432 ± 0.009 | 1.37 ± 0.077 | -0.148 ± 0.079 | 1.56 ± 0.076
56 | AACUCC | 0.000732 ± 0.015 | 1.815 ± 0.0033 | 0.225 ± 0.013 | 1.91 ± 0.097
57 | CACGGA | -0.398 ± 0.042 | 1.48 ± 0.092 | 0.0123 ± 0.14 | 1.72 ± 0.06
58 | AAGAAU | -0.565 ± 0.046 | 1.54 ± 0.062 | -0.225 ± 0.05 | 1.74 ± 0.073
59 | AAGAAA | -0.319 ± 0.062 | 1.38 ± 0.11 | -0.0342 ± 0.062 | 1.56 ± 0.035
60 | AAGAAC | -1.03 ± 0.025 | 1.55 ± 0.029 | -0.842 ± 0.066 | 1.73 ± 0.1
61 | UACCAU | -0.473 ± 0.0049 | 1.663 ± 0.0085 | -0.0951 ± 0.092 | 1.8 ± 0.12
62 | GAGAUU | -0.388 ± 0.22 | 1.71 ± 0.035 | -0.0338 ± 0.038 | 1.82 ± 0.1
63 | UACGUG | -0.864 ± 0.019 | 1.69 ± 0.031 | -0.635 ± 0.083 | 1.85 ± 0.12
64 | CAGCAA | -0.468 ± 0.048 | 1.36 ± 0.094 | -0.2496 ± 0.00056 | 1.51 ± 0.061
65 | GACUUA | -0.438 ± 0.043 | 1.5846 ± 6e-05 | -0.219 ± 0.05 | 1.76 ± 0.1
66 | GACUUU | -0.222 ± 0.11 | 1.723 ± 0.0052 | 0.162 ± 0.028 | 1.85 ± 0.083
67 | GACUUG | -0.257 ± 0.031 | 1.63 ± 0.023 | -0.0923 ± 0.026 | 1.79 ± 0.12
68 | AAGCCU | 0.14 ± 0.18 | 1.705 ± 0.014 | 0.3704 ± 0.0037 | 1.84 ± 0.11
69 | AAGCCA | -0.228 ± 0.096 | 1.63 ± 0.029 | -0.278 ± 0.12 | 1.79 ± 0.16
70 | UAGGAA | -0.246 ± 0.044 | 1.49 ± 0.07 | -0.00386 ± 0.085 | 1.68 ± 0.16
71 | CAGACA | -0.617 ± 0.0047 | 1.33 ± 0.059 | -0.36 ± 0.034 | 1.51 ± 0.13
72 | CAGACU | -0.00398 ± 0.14 | 1.584 ± 0.0086 | 0.149 ± 0.04 | 1.72 ± 0.1
